Results as given in PMC1888729, “Control of Pre-mRNA Splicing by the General Splicing Factors PUF60 and U2AF^65” (PLoS ONE, 2007).

Key:
[1] = biological target: the molecule itself; assay: SDS-PAGE and western blot; heparin fraction of HeLa nuclear extract, blot probed for PUF60
[2] = biological target: the molecule itself; assay: SDS-PAGE and western blot; His-tagged PUF60 (~3.6 pmol) purified from HEK-293E cells, blot probed for PUF60

Protein	stoichiometry N [1]	stoichiometry N [2]
PUF60 (endogenous, heparin fraction of HeLa nuclear extract) (natural protein, human (endogenous in HeLa), UniProt Q9UHX1 1-559, looked up, PUF60 of HeLa nuclear extract; Seen as a monomer and as an SDS-resistant dimer; also called FIR; RoBP1; source: endogenous, HeLa nuclear extract, fractionated (20-40% ammonium sulfate, CsCl gradient, Poros heparin column)) MATATIALQVNGQQGGGSEPAAAAAVVAAGDKWKPPQGTDSIKMENGQSTAAKLGLPPLTPEQQEALQKAKKYAMEQSIKSVLVKQTIAHQQQQLTNLQMAAVTMGFGDPLSPLQSMAAQRQRALAIMCRVYVGSIYYELGEDTIRQAFAPFGPIKSIDMSWDSVTMKHKGFAFVEYEVPEAAQLALEQMNSVMLGGRNIKVGRPSNIGQAQPIIDQLAEEARAFNRIYVASVHQDLSDDDIKSVFEAFGKIKSCTLARDPTTGKHKGYGFIEYEKAQSSQDAVSSMNLFDLGGQYLRVGKAVTPPMPLLTPATPGGLPPAAAVAAAAATAKITAQEAVAGAAVLGTLGTPGLVSPALTLAQPLGTLPQAVMAAQAPGVITGVTPARPPIPVTIPSVGVVNPILASPPTLGLLEPKKEKEEEELFPESERPEMLSEQEHMSISGSSARHMVMQKLLRKQESTVMVLRNMVDPKDIDDDLEGEVTEECGKFGAVNRVIIYQEKQGEEEDAEIIVKIFVEFSIASETHKAIQALNGRWFAGRKVVAEVYDQERFDNSDLSA	2	–
His-tagged PUF60 (PUF60S, HEK-293E) (natural protein, human, UniProt Q9UHX1-2 1-542, looked up, PUF60S, the isoform of human PUF60 that lacks alternative exon 5; amplified from pGAD-GH-RoBPI-47,3 with the primers PUF60Hisstart and PUFresmutD; About 60% of the protein ran as an SDS-resistant dimer; also called recombinant PUF60; PUFS; source: HEK-293E, transiently transfected with pTT3-HisPUFS, purified (Ni-NTA agarose)) MATATIALQVNGQQGGGSEPAAAAAVVAAGDKWKPPQGTDSIKMENGQSTAAKLGLPPLTPEQQEALQKAKKYAMEQSIKSVLVKQTIAHQQQQLTNLQMAAQRQRALAIMCRVYVGSIYYELGEDTIRQAFAPFGPIKSIDMSWDSVTMKHKGFAFVEYEVPEAAQLALEQMNSVMLGGRNIKVGRPSNIGQAQPIIDQLAEEARAFNRIYVASVHQDLSDDDIKSVFEAFGKIKSCTLARDPTTGKHKGYGFIEYEKAQSSQDAVSSMNLFDLGGQYLRVGKAVTPPMPLLTPATPGGLPPAAAVAAAAATAKITAQEAVAGAAVLGTLGTPGLVSPALTLAQPLGTLPQAVMAAQAPGVITGVTPARPPIPVTIPSVGVVNPILASPPTLGLLEPKKEKEEEELFPESERPEMLSEQEHMSISGSSARHMVMQKLLRKQESTVMVLRNMVDPKDIDDDLEGEVTEECGKFGAVNRVIIYQEKQGEEEDAEIIVKIFVEFSIASETHKAIQALNGRWFAGRKVVAEVYDQERFDNSDLSA	–	2
